B1: Fipivirus C (nucleic acid)
chain: CGCGGTTAAACCCGCGCAACCTTCTTTCAGCCGCGTCTGAGTAGCGCGGTTAGTCCTGATACACAGTTTCCTGTTGGGTACTGTGTCTTCGGGTGAATGCTCTTGTGTGAATGTTTTAGGCTGTTTAAGGGAAGCGTTTCCCCGTGCGCTGTGAGGGTTTCTCACGCTCTTTCGGGGTGCAGTCTCTTCTGTTGTTCATTAAGATGTATGGATGCACTGTTGTGAAGGATTTGTGAACTGGGGATCGACACCCCGTGAGGGGTGCCCCAGTGTCCATAGGAGTTTGCTGGAGAGGTGTGTTGCTGTAGTGACTATCCGTGACCTGGCATTCTAAGGTGTTGACCCCAACCTGTGAGGGTCTGGATCGCAGTGTTGAAGTGCTTTGGAGGGTTCAATGGGGTTTCTGTAGTGGATATTATGTGCTTGACGACTACTGGTACGAGTGTATTGGGGGTCTACATGTGTGA
modifications: lipid formulation; Fipivirus C
B2: HAV FH1 (nucleic acid)
chain: CTTGATACCTCACCGCCGTTTGCCTAGGCTATAGGCTAAATTTCCCTTTCCCTGTCCTTTCCCTATTTCCTTTTGTTTTGTTTGTAAATATTAATTCCTGCAGGTTCAGGGTTCTTTAATCTGTTTCTCTATAAGAACACTCAATTTTCACGCTTTCTGTCTCCTTTCTTCCAGGGCTCTCCCCTTGCCCTAGGCTCTGGCCGTTGCGCCCGGCGGGGTCAACTCCATGATTAGCATGGAGCTGTAGGAGTCTAAATTGGGGACGCAGATGTTTGGGACGTCGCCTTGCAGTGTTAACTTGGCTTTCATGAACCTCTTTGATCTTCCACAAGGGGTAGGCTACGGGTGAAACCTCTTAGGCTAATACTTCTATGAAGAGATGCCTTGGATAGGGTAACAGCGGCGGATATTGGTGAGTTGTTAAGACAAAAACCATTCAACGCCGAAGGACTGGCTCTCATCCAGTGGATGCATTGAGGGAATTGATTGTCAGGGCTGTCTCTAGGTTTAATCTCAGACCTCTCTGTGCTTAGGGCAAACACTATTTGGCCTTAAATGGGATCCTGTGAGAGGGGGTCCCTCCATTGACAGCTGGACTGTTCTTTGGGGCCTTATGTGGTGTTTGCCTCTGAGGTACTCAGGGGCATTTAGGTTTTTCCTCATTCTTAAACAATA
modifications: lipid formulation; Hepatovirus A
B3: HAV HM175 (nucleic acid)
chain: CGCCGTTTGCCTAGGCTATAGGCTAAATTTTCCCTTTCCCTTTTCCCTTTCCTATTCCCTTTGTTTTGCTTGTAAATATTGATTTGTAAATATTGATTCCTGCAGGTTCAGGGTTCTTAAATCTGTTTCTCTATAAGAACACTCATTTCACGCTTTCTGTCTTCTTTCTTCCAGGGCTCTCCCCTTGCCCTAGGCTCTGGCCGTTGCGCCCGGCGGGGTCAACTCCATGATTAGCATGGAGCTGTAGGAGTCTAAATTGGGGACACAGATGTTTGGAACGTCACCTTGCAGTGTTAACTTGGCTTTCATGAATCTCTTTGATCTTCCACAAGGGGTAGGCTACGGGTGAAACCTCTTAGGCTAATACTTCTATGAAGAGATGCCTTGGATAGGGTAACAGCGGCGGATATTGGTGAGTTGTTAAGACAAAAACCATTCAACGCCGGAGGACTGACTCTCATCCAGTGGATGCATTGAGTGGATTGACTGTCGGGGCTGTCTTTAGGCTTAATTCCAGACCTCTCTGTGCTTGGGGCAAACATCATTTGGCCTTAAATGGGATTCTGTGAGAGGGGATCCCTCCATTGCCAGCTGGACTGTTCTTTGGGGCCTTATGTGGTGTTTGCCGCTGAGGTACTCAGGGGCATTTAGGTTTTTCCTCATTCTTAAATAATA
modifications: lipid formulation; Hepatovirus A
B4: Fipivirus E (nucleic acid)
chain: CTCTTCCGATCTTGGGGGTTCGCCCCCATGTCTCATTTCAACTAGCCGTGTGTCTAGTTAACGCACCGCCTCACCCTGGTCGTTATCGGGTCGGTTCTTGCGACCGTTAGATCGTGAGCGTTTCTGAGGATCAGTTCGTATAAGTTCTCCGGTGTGGCGACCGTAAAATCGTCACGTCCCATGCAATAGATGACGTTAAACTCGTTTGCCAGTTACATAAAGGAATGTTGTTACTTTTAAATTGTCTGTTACATTTAACATCTTGCCAGTATGATGCTACTGTACACTACGGGTGTAGGAACCTTGTAGTGTGACGTATCACTCATATGTGGATGGGTGCTCCAGACCTTTATGGAAGCTCTCAGTTAGTAGTGATCCTTGACTTCATTGAGCCCTGGTAACAGTGGAAGTCAAGATGTATATGTTGCTCAACACACTTCGGTGCTACGAAGCTGTTTGTGGAAGTACTGGCGAGGTTCATTCTGAATCATATGTTTGTCACATAGTCAGGGAGTGCCGTCGCTTACGACGGACCCTTTTTCTTTATAATTACAAATCTGTGTCTCAAGTGTTGTTGGCTGGTTTTCTTCTTCTGTTTTCATTGTTCATATATATACGTCAGAGTGAAAGACTCGGTATATACAAAACTGATCCAGA
modifications: lipid formulation; Fipivirus E
B5: Parechovirus D (nucleic acid)
DNA: ACATGGGGCAGGTGTGCTGTGCCAAGAGCAACACTACGGTGGCCGAGCCGATGGTTCGTCACCACGTAGTAGGACTCCGTAGTGCTTGGTTACGGCGGACGTAAGTCAGTTGAGTGATGTCTAAGTGGCAAACCATGAGTACATGGTAACCTTGTGTGGACTCGCGGGACGGAATTTCCTATCCCATTGACTCCTTGTAGCAAGGTGGGTATACCCAACCACAATGGCAGCACCCTGGGTGGGAACCCAGGGGCCTGGATTAGTATCCAGTCACACAGCCTGATAGGGTGGCGGCTCAGCCACTGACCAGCGTCTCTAAATAATTGTGAGCTGTTCATGCACC
modifications: lipid formulation; Parechovirus D
B6: Limnipivirus C (nucleic acid)
DNA: GTTTCTGAGCACTGGTAAGAGCTTAGACAAACGTTTTTAAAATTTATTTTCTCTGCAACTTTTGTTTGTGTTTATTTTTATTTGTTAATTTTGCGCCTAAGCATTTGTTGCGAAGTATTTGATTCATTAGTAATATTACTTATTGTTTATTTAGATGGTATTCAAAGTGGTGGGAGTATCGAACCCAAGCGTCGTATGCTATCTCCTTGAACAATTTTTAATCATTGCGAAGTGATCATTGAAAAGGATAGGTGTTTAAGAACTCAAAGAGTGTTAATAATGTTGGGTGACAGGTGTCCCCATAGAATTTATTAACATGATTTGGACTGGTTATCTAGTAAGAAGAACCATCGAACGCACGAGCGAGCATTGCTTGCGGGGCAGTTACCCTGCGTCGATGTAAGTGTGTACCGGGGGGTGCACATGTTGATTCTTTATGGCCTGATAGGGTGCGTCATTCGCGCCTAGATAATTAGTATAATGCGAATGGAATAAATTTAC
modifications: lipid formulation; Limnipivirus C
B7: Hepatovirus C (nucleic acid)
DNA: TTCAAAAGCCCCAGCGGGGTTTCATTACCCCGCTGTGGCTTTTGGACTTCCCTAGGATGGGGAAGTAAATTACCATCCTCGCGTTTGCCGTGCGTTAACGGCTACTTTTCTTCTAGCTGTAGAAGTAAAATTCAGCATGTTTTATGTTTGTTTGTCTTGTTTGTTATATACATTTTTACACTCCTACAAATGCACATGAAGAACAGTTTGTAGAGATTAACAAACGCTTAGCTGAACCTAGGTGGTGAATCTAGTAGTAAGATAAGTAGAGGAAGCTATACCTTAAGTTGGTTGGGCCCTCGTGTTTGCTCTATAAACAAAACCAAGTGAGTAGAGTGGATGAACAGTACTAAATCCCTGAGTACAGGGAACCTCACAGGTGTGATACACTTATGTCTATGTGACCTGGTTGGAGGTTGGGCGTGCCCTATGATACTGGAGTGGGAGATCTTTTGGGGAACCCACGTTTTCACACTGCCTGATAGGGTCTTGCCGAGAGACTCACTTGTTTCGGCTGTACTTGTAAC
modifications: Hepatovirus C
B8: Orivirus (nucleic acid, listed as Orivirus sp.)
DNA: GGTCCCAGGCCAATATTCTTCGTAAGGCTTGGTTCCAATTTTCCACCACTCGTGTTTGGGTTCTGGCCTATGGTACCCAGAGGGGCGGTTTGGGGGAATTAACTCCCCCTCCCCTGTGGTCCTATACCACCCCACACCTCTGTGGGCTTTCTTTACTATCTTCTTGTTTTCCGACTTTTAAACACTAGGCAGGCGCGCCTAGTCATACACCGCCCGGCTGGTCTTTCCAGCTCTTGTGGGCGGTGCGCGCTGGTCCATCGTGCCCAGCGACATAGCACCTTGTGGACACCTCCGAACGCCCTCCCCTGTATGGGGTGGTGCCCAGGGGTTTCAGTGTGGTGACACACTCCCTGGGGCCCGAAAGGCTAGTGTGCAACAGGTGAGGTACAGCCAGCTGCCCCCGTGGCTGGAGGGACCAAGCTTGTGAAGCACACCTCACCTTCTTGGGGGTGGGCTAGTAAGTGGTGAAAGCATAGTGTCCGTGTCGCTGGCCAACACTTTGGGTCAAGTCCAGCCACTCAGTGAGTAGATGCCCAGGAGGTACCCCTAGTGGATCTGACTTGGGGCCTGTTACTTAATGCAGGTTAAAAACTATGAAAGCTGAGTAGTGTAGCCCGGCTGGTGGCTTCTCTTCCTTATTCATTCTATTTTATGGTGACAAACGCAACTGAAGCC
modifications: lipid formulation
B9: Fipivirus A (nucleic acid)
chain: TGCGGGTAAACTCCCGCATGTGTGAATGAGGCGATGTCCCAGGAACTAACTGCCGATCCTGGTTTTAACTACGATCCGTATTTGTTACTAATGCGATATCCCCCCATTGTTTGCCTCCATGTTGTTTTCAACGCTTTTGGCCTTGAGTGTTATCAAGTGTTTTAGCGACATAGTGGGAAGCTACGGCTGCGTCCCCATTTTTGAGTGGCGACCCAGTTTTAGTGGCCACTCTGTCCCTGAACTGCGCTATAATGTGAATTTATGTTCACAAAAACGGACTGATGTAACTGTTAATGACTAAGGAATAGTACCTCACTGAAGTATCAAGACCCCGTTCGAGCGGTGTACATATATGGATGGAAACCTTGTCTGAGTCATCTCGAATACTAATCAATGAGGGATGTCGAGTAAGCATATCATGAACCACATAGAATAGTGGGGTTTCGGGGTTAGAGGCTCTCTGCAGCAATGTATCTCTAACACCATGGCCGAAATGAGAGATAGAGACCACGATGTTTGTGTGTAAGTAATGATGTGTGGAAAGAAAATTCTGAATGTTGGTATGATATCAGTCTAAGGGGAGTGGCTCACCTAAGAGCTACCCAAACATTTCACAGCAGACAACATAACGTACTGAGAGTAGTTGGAAGGTTCCAGAAATCAGT
modifications: lipid formulation; Fipivirus A

Each molecule was assayed on HEK293 cells. Details: circular RNA encoding Gluc with the listed IRES (UTR truncated to 675 nt) transfected into HEK293 cells; supernatant after 24 hours.
Type: cell-based, human

First: B1
Second: B2
The “Expression (luminescence from secreted Gluc protein)” value (“Expression” for short) of the first is lower: 1.09E+05 for the first, 1.24E+05 for the second.

Compared with B3, B4 is lower in “Expression” value: 4.96E+05 for the first, 1.10E+05 for the second.

First: B5
Second: B6
The “Expression” value of the first is higher: 3.10E+05 for the first, 1.35E+05 for the second.

First: B7
Second: B8
The “Expression” value of the first is lower: 5.08E+05 for the first, 6.09E+05 for the second.

For B9, the “Expression” value was 2.69E+05.
